The values below come from article doi:10.1101/2020.10.02.324624.

In the experiment the target is AmvR (Acinetobacter baumannii ATCC17978). Briefly: SEC. Background: SEC sorts molecules by how far they enter the pores of the column.

A word on the stoichiometry N: it is the number of molecules, sites or subunits per partner or assembly. On to AmvR (natural protein), for which the stoichiometry N was 2.
